Test results from patent publication US20240010697A1 (CYTIMM THERAPEUTICS, published 2024).
Changes are numbered by the printed parent chain. Names and notes keep the numbering of the source. Values belong to the binder of their own block, whether it stands above or below them.

Tests used:
[1] = biological target: T1, IL-2Rβγ-human Fc fusion protein construct (ACRO Biosystems) (human, UniProt P14784 27-239; P31785 23-262, limits assumed); assay: ELISA, receptor-Fc captured by anti-human IgG Fc, anti-His-HRP detection
T1 construct: not shown: human Fc
T1 sequence (looked up) 1: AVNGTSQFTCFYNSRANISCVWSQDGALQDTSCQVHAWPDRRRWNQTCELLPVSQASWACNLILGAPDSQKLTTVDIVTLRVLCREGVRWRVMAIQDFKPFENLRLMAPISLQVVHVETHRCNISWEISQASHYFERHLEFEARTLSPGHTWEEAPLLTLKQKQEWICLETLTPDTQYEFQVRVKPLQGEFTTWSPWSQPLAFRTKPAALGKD
T1 sequence (looked up) 2: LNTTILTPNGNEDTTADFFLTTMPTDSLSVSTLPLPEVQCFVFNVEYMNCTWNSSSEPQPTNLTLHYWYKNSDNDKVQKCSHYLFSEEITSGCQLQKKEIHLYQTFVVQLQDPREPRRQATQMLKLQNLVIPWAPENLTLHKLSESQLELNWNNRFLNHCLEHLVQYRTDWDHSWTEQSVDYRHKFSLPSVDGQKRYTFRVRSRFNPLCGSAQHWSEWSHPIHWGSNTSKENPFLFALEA
Protocol: (§1) IL-2Rα and IL-2R βγ-human Fc fusion protein constructs (ACRO Biosystems) were each expressed and immobilized by anti-Human IgG Fc (abeam), which were then captured on the surface of wells of a microplate. […] Binding was detected using anti-His or anti-PEG antibody conjugated to horse radish peroxidase (HRP) (Genscript), which was incubated with substrate. The quantification of binding was measured with an absorbance-based microplate reader. Data were analyzed by Graphpas prism9 Software.

[2] = biological target: T2, IL-2Rα in a human Fc fusion protein format (ACROBiosystems) (human, UniProt P01589 22-213, limits assumed); assay: as above
T2 construct: Bought reagent; also called CD25; not shown: human Fc (captured by anti-human IgG Fc)
T2 sequence (looked up): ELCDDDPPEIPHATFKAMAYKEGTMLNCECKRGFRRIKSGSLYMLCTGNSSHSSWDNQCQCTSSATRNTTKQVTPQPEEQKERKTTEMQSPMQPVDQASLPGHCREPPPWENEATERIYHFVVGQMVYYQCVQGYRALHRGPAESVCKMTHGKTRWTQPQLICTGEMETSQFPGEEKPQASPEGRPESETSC
Protocol: as §1

[3] = biological target: T2, IL-2Rα in a human Fc fusion protein …; assay: ELISA; EC50 on IL-2Rα over EC50 on IL-2Rβγ (reference)
Protocol: as §1

[4] = biological target: T1, IL-2Rβγ-human Fc fusion protein …; assay: biosensor kinetics, receptor as ligand on the sensor, IL-2 protein as sample, 1:1 Binding model (legend: Octet QKe; table heads give RU)
[5] = biological target: T2, IL-2Rα in a human Fc fusion protein …; assay: as above
IL2R αβγ = biological target: T3, IL2R αβγ; assay: as above
T3 construct: Cell-free IL-2Rαβγ on a biosensor; not the cell-borne receptors m18 and m19; also called IL-2Rαβγ (ligand on the sensor)

[6] = biological target: T2, IL-2Rα in a human Fc fusion protein …; assay: BLI (Octet QKe), IL-2Rα-Fc captured on AHC sensors, 1:1 fit
Excerpt: (§2) IL-2Rα or IL-2Rβ in a human Fc fusion protein format (ACROBiosystems) were captured on anti-human IgG Fc capture (AHC) sensors. […] Dissociation was detected following transfer of sensors into wells containing buffer alone. Data were collected and analyzed by the Octet User Software. For analysis of the kinetics constants, a 1:1 curve fitting model was used.

[7] = biological target: T2, IL-2Rα in a human Fc fusion protein …; assay: ELISA; α/βγ EC50 ratio of rhIL2 (reference) over that of ACT5211
Protocol: as §1

[8] = biological target: T1, IL-2Rβγ-human Fc fusion protein …; assay: ELISA; EC50 of rhIL2 (reference) over EC50 of ACT5211 on IL-2Rβγ
Protocol: as §1

[9] = biological target: T2, IL-2Rα in a human Fc fusion protein …; assay: ELISA; EC50 of rhIL2 (reference) over EC50 of ACT5211 on IL-2Rα
Protocol: as §1

IL2R β = biological target: T4, IL2R β; assay: biosensor sensorgrams, receptor on the sensor, IL-2 protein in solution (legend: Octet QKe); axes without units, concentrations not given
T4 construct: also called IL-2Rβ in a human Fc fusion protein format (ACROBiosystems); CD122; not shown: The human IgG Fc carrier and any linker of the ACROBiosystems fusion
T4 chain: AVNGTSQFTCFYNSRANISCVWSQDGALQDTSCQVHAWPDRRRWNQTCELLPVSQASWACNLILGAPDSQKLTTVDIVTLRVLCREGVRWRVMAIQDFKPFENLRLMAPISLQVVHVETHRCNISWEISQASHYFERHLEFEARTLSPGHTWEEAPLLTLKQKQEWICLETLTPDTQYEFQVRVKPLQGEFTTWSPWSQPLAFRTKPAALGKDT
Excerpt: as §2

[10] = biological target: T1, IL-2Rβγ-human Fc fusion protein …; assay: ELISA, receptor-Fc captured by anti-human IgG Fc, anti-His or anti-PEG HRP detection
Protocol: as §1

[11] = biological target: T2, IL-2Rα in a human Fc fusion protein …; assay: as above
Protocol: as §1

[12] = biological target: T1, IL-2Rβγ-human Fc fusion protein …; assay: ELISA, receptor-Fc captured by anti-human IgG Fc on the plate, detection with anti-His or anti-PEG antibody-HRP; unit from the axis (Table 4 of the text prints 21.7)
Protocol: as §1

[13] = biological target: T2, IL-2Rα in a human Fc fusion protein …; assay: ELISA, receptor-Fc captured by anti-human IgG Fc on the plate, detection with anti-His or anti-PEG antibody-HRP; unit from the axis (Table 4 of the text prints 5.1)
Protocol: as §1

[14] = biological target: T2, IL-2Rα in a human Fc fusion protein …; assay: BLI (Octet QKe), IL-2Rα-Fc captured on AHC sensors, 1:1 fit; row printed a second time
Excerpt: as §2

B1: ACT5210, IL-2 mutein Y31C + L18M + L19S (ligand)
chain: APTSSSTKKTQLQLEHLMSDLQMILNGINNCKNPKLTRMLTFKFYMPKKATELKHLQCLEEELKPLEEVLNLAQSKNFHLRPRDLISNINVIVLELKGSETTFMCEYADETATIVEFLNRWITFSQSIISTLT
notes: Not PEGylated; rhIL-2 (C125S) background; also called His-conjugated IL-2 mutein (ACT5210); not shown: His-Tag
- EC50 [1]: 39.6 ng/mL
- EC50 [2]: 2.5 ng/mL
- Ratio (α/βγ) of EC50 [3]: 0.06
- Kd [4]: 1.04 nM
- koff [4]: 0.000837 s⁻¹
- kon [4]: 807000 M⁻¹ s⁻¹
- Kd [5]: 28.4 nM
- koff [5]: 0.164 s⁻¹
- kon [5]: 5.75e+06 M⁻¹ s⁻¹
- Kd (IL2R αβγ): 0.0113 nM
- koff (IL2R αβγ): 0.000281 s⁻¹
- kon (IL2R αβγ): 2.48e+07 M⁻¹ s⁻¹

B2: IL-2 mutein Y31C - PEG20 + N30A (ligand)
chain: B1 chain with M18L, S19L, N30A
modifications: maleimide-PEG 20K on Cys 31
notes: not shown: His-Tag
- Kd [6]: 37.3 nM
- koff [6]: 0.0194 s⁻¹
- kon [6]: 520000 M⁻¹ s⁻¹

B5: ACT5211, IL-2 mutein Y31C + L18M + L19S (PEG20K) (ligand)
chain: B1 chain
modifications: maleimide-PEG 20K on Cys 31
notes: rhIL-2 (C125S) background; also called Y31C - PEG20 + L18M + L19S; Y31C-PEG20+L18ML19S; not shown: His-Tag
- Kd [6]: 91.5 nM
- koff [6]: 0.0388 s⁻¹
- kon [6]: 424000 M⁻¹ s⁻¹
- ratio of the (α/βγ) EC50 ratios, rhIL2/ACT5211 [7]: 67.7
- EC50 ratio rhIL2/ACT5211 [8]: 0.1
- EC50 ratio rhIL2/ACT5211 [9]: 6.8
- binding result (IL2R β): no binding (tested: not printed)
- EC50 [10]: 21.7 ng/mL
- EC50 [11]: 5.1 ng/mL
- Ratio (α/βγ) of EC50 [3]: 0.3
- Kd [4]: 15.1 nM
- koff [4]: 0.00147 s⁻¹
- kon [4]: 97200 M⁻¹ s⁻¹
- Kd [5]: 250 nM
- koff [5]: 0.139 s⁻¹
- kon [5]: 555000 M⁻¹ s⁻¹
- Kd (IL2R αβγ): 0.289 nM
- koff (IL2R αβγ): 0.000761 s⁻¹
- kon (IL2R αβγ): 2.63e+06 M⁻¹ s⁻¹
- EC50 [12]: 2.03 ng/mL
- EC50 [13]: 5.01 ng/mL

B6: IL-2 mutein Y31C - PEG20 + N30G (ligand)
chain: B1 chain with M18L, S19L, N30G
modifications: maleimide-PEG 20K on Cys 31
notes: not shown: His-Tag
- Kd [6]: 61 nM
- koff [6]: 0.0232 s⁻¹
- kon [6]: 379000 M⁻¹ s⁻¹
- Kd [14]: 61 nM
- koff [14]: 0.0232 s⁻¹
- kon [14]: 379000 M⁻¹ s⁻¹

B9: ACT522S1, IL-2 mutein Y31C + N30S (PEG20K) (ligand)
chain: B1 chain with M18L, S19L, N30S
modifications: maleimide-PEG 20K on Cys 31
notes: rhIL-2 (C125S) background; also called Y31C - PEG20 + N30S; not shown: His-Tag
- Kd [6]: 47.3 nM
- koff [6]: 0.0302 s⁻¹
- kon [6]: 639000 M⁻¹ s⁻¹

The remaining lines, values ahead:

- Kd [6]: 9.14 nM
- koff [6]: 0.0029 s⁻¹
- kon [6]: 318000 M⁻¹ s⁻¹
B3: ACT5271, IL-2 mutein Y31C + V69A + Q74P + N30S (PEG20K) (ligand)
chain: B1 chain with M18L, S19L, N30S, V69A, Q74P
modifications: maleimide-PEG 20K on Cys 31
notes: rhIL-2 (C125S) background; also called Y31C - PEG20 + V69A + Q74P + N30S; not shown: His-Tag

- Kd [6]: 10.6 nM
- koff [6]: 0.0037 s⁻¹
- kon [6]: 345000 M⁻¹ s⁻¹
B4: ACT5281, IL-2 mutein Y31C + V69A + Q74P + N88R (PEG20K) (ligand)
chain: B1 chain with M18L, S19L, V69A, Q74P, N88R
modifications: maleimide-PEG 20K on Cys 31
notes: rhIL-2 (C125S) background; also called Y31C - PEG20 + V69A + Q74P + N88R; not shown: His-Tag

- Kd [6]: 7.38 nM
- koff [6]: 0.0043 s⁻¹
- kon [6]: 581000 M⁻¹ s⁻¹
B7: ACT5261, IL-2 mutein Y31C + L18M + L19S + V69A + Q74P (PEG20K) (ligand)
chain: B1 chain with V69A, Q74P
modifications: maleimide-PEG 20K on Cys 31
notes: rhIL-2 (C125S) background; also called Y31C - PEG20 + L18M + L19S + V69A + Q74P; not shown: His-Tag

- Kd [6]: 9.07 nM
- koff [6]: 0.0032 s⁻¹
- kon [6]: 355000 M⁻¹ s⁻¹
B8: ACT5291, IL-2 mutein Y31C + V69A + Q74P + V91K (PEG20K) (ligand)
chain: B1 chain with M18L, S19L, V69A, Q74P, V91K
modifications: maleimide-PEG 20K on Cys 31
notes: rhIL-2 (C125S) background; also called Y31C - PEG20 + V69A + Q74P + V91K; not shown: His-Tag

- Kd [6]: 9.09 nM
- koff [6]: 0.00431 s⁻¹
- kon [6]: 474000 M⁻¹ s⁻¹
B10: ACT5231, IL-2 mutein Y31C + V69A + Q74P (PEG20K) (ligand)
chain: B1 chain with M18L, S19L, V69A, Q74P
modifications: maleimide-PEG 20K on Cys 31
notes: rhIL-2 (C125S) background; also called Y31C - PEG20 + V69A + Q74P; not shown: His-Tag

- Kd [6]: 8.86 nM
- koff [6]: 0.0035 s⁻¹
- kon [6]: 393000 M⁻¹ s⁻¹
B11: IL-2 mutein Y31C - PEG20 + V69A + Q74P + I128T (ligand)
chain: B1 chain with M18L, S19L, V69A, Q74P, I128T
modifications: maleimide-PEG 20K on Cys 31
notes: not shown: His-Tag
